Laboratory results from publication doi:10.1101/2021.03.16.435520.
Several values for one entry are separate records, joined by “and”; a condition that tells them apart may be missing. Equal entries are not always repeated.

Assays:
[1] = molecular target: IRE1α kinase-endoribonuclease module, fully phosphorylated (IRE1-KR-3P) (human) (UniProt O75460); assay: cross-linking
[2] = molecular target: IRE1α kinase-endoribonuclease module, unphosphorylated (IRE1-KR-0P) (human) (UniProt O75460); assay: cross-linking

## IRE1α kinase-endoribonuclease module, fully phosphorylated (IRE1-KR-3P) (from UniProt O75460 547-977) (domain or fragment)
[1]
  stoichiometry N: 2 and 4 and 6

## IRE1α kinase-endoribonuclease module, unphosphorylated (IRE1-KR-0P) (from UniProt O75460 547-977) (domain or fragment)
[2]
  stoichiometry N: 2
